The source of these data is PMC12416549 (2024).

First the molecules themselves.
T1: TNFR1 (Homo sapiens, UniProt P19438)
T1 chain: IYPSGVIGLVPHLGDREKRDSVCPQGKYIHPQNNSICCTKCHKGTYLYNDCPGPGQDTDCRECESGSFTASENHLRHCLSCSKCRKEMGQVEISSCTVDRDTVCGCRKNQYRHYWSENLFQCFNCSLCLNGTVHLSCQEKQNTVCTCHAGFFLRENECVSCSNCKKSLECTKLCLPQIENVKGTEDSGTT

B1: S51A (designed binder)
chain: MTLQELLREEALRRAEAEAFRYALELLAEKFPEQKEYLLDLAEEIESQIRALSGVDVEDVRKFLDKEWAWVKELLAEHPAELAEVEAARAARLAELRAEVEAKVAA
B2: L3I (designed binder)
chain: MTIQELLREEALRRAEAEAFRYALELLAEKFPEQKEYLLDLAEEIESQIRSLSGVDVEDVRKFLDKEWAWVKELLAEHPAELAEVEAARAARLAELRAEVEAKVAA
B3: A102M (designed binder)
chain: MTLQELLREEALRRAEAEAFRYALELLAEKFPEQKEYLLDLAEEIESQIRSLSGVDVEDVRKFLDKEWAWVKELLAEHPAELAEVEAARAARLAELRAEVEMKVAA
B4: K30C (designed binder)
chain: MTLQELLREEALRRAEAEAFRYALELLAECFPEQKEYLLDLAEEIESQIRSLSGVDVEDVRKFLDKEWAWVKELLAEHPAELAEVEAARAARLAELRAEVEAKVAA
B5: F20K (designed binder)
chain: MTLQELLREEALRRAEAEAKRYALELLAEKFPEQKEYLLDLAEEIESQIRSLSGVDVEDVRKFLDKEWAWVKELLAEHPAELAEVEAARAARLAELRAEVEAKVAA
B6: D40F (designed binder)
chain: MTLQELLREEALRRAEAEAFRYALELLAEKFPEQKEYLLFLAEEIESQIRSLSGVDVEDVRKFLDKEWAWVKELLAEHPAELAEVEAARAARLAELRAEVEAKVAA
B7: L52W (designed binder)
chain: MTLQELLREEALRRAEAEAFRYALELLAEKFPEQKEYLLDLAEEIESQIRSWSGVDVEDVRKFLDKEWAWVKELLAEHPAELAEVEAARAARLAELRAEVEAKVAA
B8: A106C (designed binder)
chain: MTLQELLREEALRRAEAEAFRYALELLAEKFPEQKEYLLDLAEEIESQIRSLSGVDVEDVRKFLDKEWAWVKELLAEHPAELAEVEAARAARLAELRAEVEAKVAC
B9: A76R (designed binder)
chain: MTLQELLREEALRRAEAEAFRYALELLAEKFPEQKEYLLDLAEEIESQIRSLSGVDVEDVRKFLDKEWAWVKELLREHPAELAEVEAARAARLAELRAEVEAKVAA
B10: A17S (designed binder)
chain: MTLQELLREEALRRAESEAFRYALELLAEKFPEQKEYLLDLAEEIESQIRSLSGVDVEDVRKFLDKEWAWVKELLAEHPAELAEVEAARAARLAELRAEVEAKVAA
B11: G54V (designed binder)
chain: MTLQELLREEALRRAEAEAFRYALELLAEKFPEQKEYLLDLAEEIESQIRSLSVVDVEDVRKFLDKEWAWVKELLAEHPAELAEVEAARAARLAELRAEVEAKVAA
B12: I49Q (designed binder)
chain: MTLQELLREEALRRAEAEAFRYALELLAEKFPEQKEYLLDLAEEIESQQRSLSGVDVEDVRKFLDKEWAWVKELLAEHPAELAEVEAARAARLAELRAEVEAKVAA
B13: A98F (designed binder)
chain: MTLQELLREEALRRAEAEAFRYALELLAEKFPEQKEYLLDLAEEIESQIRSLSGVDVEDVRKFLDKEWAWVKELLAEHPAELAEVEAARAARLAELRFEVEAKVAA
B14: I49Y (designed binder)
chain: MTLQELLREEALRRAEAEAFRYALELLAEKFPEQKEYLLDLAEEIESQYRSLSGVDVEDVRKFLDKEWAWVKELLAEHPAELAEVEAARAARLAELRAEVEAKVAA
B15: A28H (designed binder)
chain: MTLQELLREEALRRAEAEAFRYALELLHEKFPEQKEYLLDLAEEIESQIRSLSGVDVEDVRKFLDKEWAWVKELLAEHPAELAEVEAARAARLAELRAEVEAKVAA
B16: E18Y (designed binder)
chain: MTLQELLREEALRRAEAYAFRYALELLAEKFPEQKEYLLDLAEEIESQIRSLSGVDVEDVRKFLDKEWAWVKELLAEHPAELAEVEAARAARLAELRAEVEAKVAA
B17: R92C (designed binder)
chain: MTLQELLREEALRRAEAEAFRYALELLAEKFPEQKEYLLDLAEEIESQIRSLSGVDVEDVRKFLDKEWAWVKELLAEHPAELAEVEAARAACLAELRAEVEAKVAA
B18: W68I (designed binder)
chain: MTLQELLREEALRRAEAEAFRYALELLAEKFPEQKEYLLDLAEEIESQIRSLSGVDVEDVRKFLDKEIAWVKELLAEHPAELAEVEAARAARLAELRAEVEAKVAA
B19: R21N (designed binder)
chain: MTLQELLREEALRRAEAEAFNYALELLAEKFPEQKEYLLDLAEEIESQIRSLSGVDVEDVRKFLDKEWAWVKELLAEHPAELAEVEAARAARLAELRAEVEAKVAA
B20: E73P (designed binder)
chain: MTLQELLREEALRRAEAEAFRYALELLAEKFPEQKEYLLDLAEEIESQIRSLSGVDVEDVRKFLDKEWAWVKPLLAEHPAELAEVEAARAARLAELRAEVEAKVAA
B21: K62M (designed binder)
chain: MTLQELLREEALRRAEAEAFRYALELLAEKFPEQKEYLLDLAEEIESQIRSLSGVDVEDVRMFLDKEWAWVKELLAEHPAELAEVEAARAARLAELRAEVEAKVAA
B22: A83S (designed binder)
chain: MTLQELLREEALRRAEAEAFRYALELLAEKFPEQKEYLLDLAEEIESQIRSLSGVDVEDVRKFLDKEWAWVKELLAEHPAELSEVEAARAARLAELRAEVEAKVAA
B23: L24S (designed binder)
chain: MTLQELLREEALRRAEAEAFRYASELLAEKFPEQKEYLLDLAEEIESQIRSLSGVDVEDVRKFLDKEWAWVKELLAEHPAELAEVEAARAARLAELRAEVEAKVAA
B24: A23K (designed binder)
chain: MTLQELLREEALRRAEAEAFRYKLELLAEKFPEQKEYLLDLAEEIESQIRSLSGVDVEDVRKFLDKEWAWVKELLAEHPAELAEVEAARAARLAELRAEVEAKVAA
B25: E43A (designed binder)
chain: MTLQELLREEALRRAEAEAFRYALELLAEKFPEQKEYLLDLAAEIESQIRSLSGVDVEDVRKFLDKEWAWVKELLAEHPAELAEVEAARAARLAELRAEVEAKVAA
B26: R97V (designed binder)
chain: MTLQELLREEALRRAEAEAFRYALELLAEKFPEQKEYLLDLAEEIESQIRSLSGVDVEDVRKFLDKEWAWVKELLAEHPAELAEVEAARAARLAELVAEVEAKVAA
B27: V104L (designed binder)
chain: MTLQELLREEALRRAEAEAFRYALELLAEKFPEQKEYLLDLAEEIESQIRSLSGVDVEDVRKFLDKEWAWVKELLAEHPAELAEVEAARAARLAELRAEVEAKLAA
B28: R8D (designed binder)
chain: MTLQELLDEEALRRAEAEAFRYALELLAEKFPEQKEYLLDLAEEIESQIRSLSGVDVEDVRKFLDKEWAWVKELLAEHPAELAEVEAARAARLAELRAEVEAKVAA
B29: P79V (designed binder)
chain: MTLQELLREEALRRAEAEAFRYALELLAEKFPEQKEYLLDLAEEIESQIRSLSGVDVEDVRKFLDKEWAWVKELLAEHVAELAEVEAARAARLAELRAEVEAKVAA
B30: L74A (designed binder)
chain: MTLQELLREEALRRAEAEAFRYALELLAEKFPEQKEYLLDLAEEIESQIRSLSGVDVEDVRKFLDKEWAWVKEALAEHPAELAEVEAARAARLAELRAEVEAKVAA
B31: E5G (designed binder)
chain: MTLQGLLREEALRRAEAEAFRYALELLAEKFPEQKEYLLDLAEEIESQIRSLSGVDVEDVRKFLDKEWAWVKELLAEHPAELAEVEAARAARLAELRAEVEAKVAA
B32: A105E (designed binder)
chain: MTLQELLREEALRRAEAEAFRYALELLAEKFPEQKEYLLDLAEEIESQIRSLSGVDVEDVRKFLDKEWAWVKELLAEHPAELAEVEAARAARLAELRAEVEAKVEA
B33: F31H (designed binder)
chain: MTLQELLREEALRRAEAEAFRYALELLAEKHPEQKEYLLDLAEEIESQIRSLSGVDVEDVRKFLDKEWAWVKELLAEHPAELAEVEAARAARLAELRAEVEAKVAA
B34: F63A (designed binder)
chain: MTLQELLREEALRRAEAEAFRYALELLAEKFPEQKEYLLDLAEEIESQIRSLSGVDVEDVRKALDKEWAWVKELLAEHPAELAEVEAARAARLAELRAEVEAKVAA

This test has as its target T1, TNFR1. Nature of the test: yeast display SC50.
Consider B1, for which the “apparent Kd (screen)” value was found to be 0.869 nM.
For the molecule B2, the “apparent Kd (screen)” value amounted to 0.539 nM.
For B3, the “apparent Kd (screen)” value came to 0.718 nM.
Under B4 stands 0.539 nM.
Under B5 stands 22.2 nM; under B6, 18.3 nM.
On to B7, for which the “apparent Kd (screen)” value was found to be 0.405 nM.
With B8 the figure was 1.16 nM; with B9, 0.49 nM.
As for B10, the “apparent Kd (screen)” value is 0.956 nM.
Consider B11, for which the “apparent Kd (screen)” value came out at 0.653 nM.
Take B12: the “apparent Kd (screen)” value was determined as 0.368 nM.
Under B13 stands 0.593 nM; under B14, 2.48 nM.
With B15, the “apparent Kd (screen)” value was 7.78 nM.
As for B16, the “apparent Kd (screen)” value came to 0.539 nM.
Consider B17, for which the “apparent Kd (screen)” value came out at 0.718 nM.
Turning to B18, the “apparent Kd (screen)” value worked out at 0.79 nM.
As to B19, the “apparent Kd (screen)” value worked out at 0.653 nM.
As to B20, the “apparent Kd (screen)” value worked out at 5.31 nM.
As to B21, the “apparent Kd (screen)” value is 0.718 nM.
For B22, the “apparent Kd (screen)” value stood at 0.539 nM.
In the case of B23, the “apparent Kd (screen)” value worked out at 0.869 nM.
Take B24: the “apparent Kd (screen)” value worked out at 0.539 nM.
For B25, the “apparent Kd (screen)” value was 0.79 nM.
As for B26, the “apparent Kd (screen)” value stood at 0.49 nM.
Turning to B27, the “apparent Kd (screen)” value worked out at 0.718 nM.
On to B28, for which the “apparent Kd (screen)” value turned out to be 0.593 nM.
As for B29, the “apparent Kd (screen)” value turned out to be 0.79 nM.
Under B30 stands 1.69 nM; under B31, 0.653 nM.
For B32, the “apparent Kd (screen)” value was 0.593 nM.
B33: the “apparent Kd (screen)” value amounted to 1.4 nM.
Turning to B34, the “apparent Kd (screen)” value was found to be 1.27 nM.
